# Results reported in the supplement of paper PMC6755084.
# System: F1*sub RNA substrate (template-directed ligation)
# Test: fraction ligated after 30 min (ligated reads / total reads); higher = more ligase activity; sequences stand for … in GAGACCGCAACTGAAAAGTTGT…AGTTCTGCACGTAGAAGCAAAAGGC
# Details: 42 °C
# How it was run: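 Oligo-pool templates underwent PCR amplification, T7 transcription and gel purification to yield ribozyme variants. Gel-separated ligated and unligated bands were converted to complementary DNA with barcoded primers and sequenced on a MiSeq, keeping core bases of quality ≥20. The ratio of ligated reads to total reads gave the fraction ligated for every variant.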
row,Sequence,fraction ligated
1,TATCATTGTCGTAGAACTTTGGATGGGTTGA [3d1217],0.864
2,TATCATTGTCGTAGACACTTGGATGGGTTGA [3d1220],0.752
3,TATCATTGTCGTAGACACTTTGATGGGTTGA [3d1221],0.774
4,TATCATTGTCGTAGACACTTTGGAGGGTTGA [3d1223],0.0919
5,TATCATTGTCGTAGACACTTTGGATGGGTTA [3d1225],0.595
6,TATCATTGTCGTAGACACTTTGGATGGGTTG [3d1226],0.799
7,TATCATTGTCGTAGACACTTTGGATGGGTTGA [2d115],0.798
8,TATCATTGTCGTAGACACTTTGGATGGTTGA [3d1224],0.305
9,TATCATTGTCGTAGACACTTTGGTGGGTTGA [3d1222],0.356
10,TATCATTGTCGTAGACATTTGGATGGGTTGA [3d1219],0.809
11,TATCATTGTCGTAGACCTTTGGATGGGTTGA [3d1218],0.788
12,TATCATTGTCGTAGCACTTTGGATGGGTTGA [3d1216],0.814
13,TATCATTGTCGTGACACTTTGGATGGGTTGA [3d1214],0.792
14,TATCATTGTCTAAACACTTTGGATGGGTTGA [3d1189],0.785
15,TATCATTGTCTAAGAACTTTGGATGGGTTGA [3d1191],0.803
16,TATCATTGTCTAAGACACTTGGATGGGTTGA [3d1194],0.78
17,TATCATTGTCTAAGACACTTTGATGGGTTGA [3d1195],0.751
18,TATCATTGTCTAAGACACTTTGGAGGGTTGA [3d1197],0.0716
19,TATCATTGTCTAAGACACTTTGGATGGGTTA [3d1199],0.477
20,TATCATTGTCTAAGACACTTTGGATGGGTTG [3d1200],0.769
21,TATCATTGTCTAAGACACTTTGGATGGGTTGA [2d113],0.785
22,TATCATTGTCTAAGACACTTTGGATGGTTGA [3d1198],0.169
23,TATCATTGTCTAAGACACTTTGGTGGGTTGA [3d1196],0.222

row,Sequence,fraction ligated
1,TATCATTGTCTAAGACATTTGGATGGGTTGA [3d1193],0.778
2,TATCATTGTCTAAGACCTTTGGATGGGTTGA [3d1192],0.758
3,TATCATTGTCTAAGCACTTTGGATGGGTTGA [3d1190],0.765
4,TATCATTGTCTAGACACTTTGGATGGGTTGA [3d1188],0.765
5,TATCATTGTGAAGACACTTTGGATGGGTTGA [3d1173],0.824
6,TATCATTGTGTAAACACTTTGGATGGGTTGA [3d1175],0.82
7,TATCATTGTGTAAGAACTTTGGATGGGTTGA [3d1177],0.856
8,TATCATTGTGTAAGACACTTGGATGGGTTGA [3d1180],0.799
9,TATCATTGTGTAAGACACTTTGATGGGTTGA [3d1181],0.308
10,TATCATTGTGTAAGACACTTTGGAGGGTTGA [3d1183],0.0175
11,TATCATTGTGTAAGACACTTTGGATGGGTTA [3d1185],0.677
12,TATCATTGTGTAAGACACTTTGGATGGGTTG [3d1186],0.786
13,TATCATTGTGTAAGACACTTTGGATGGGTTGA [2d112],0.824
14,TATCATTGTGTAAGACACTTTGGATGGTTGA [3d1184],0.0387
15,TATCATTGTGTAAGACACTTTGGTGGGTTGA [3d1182],0.0386
16,TATCATTGTGTAAGACATTTGGATGGGTTGA [3d1179],0.839
17,TATCATTGTGTAAGACCTTTGGATGGGTTGA [3d1178],0.875
18,TATCATTGTGTAAGCACTTTGGATGGGTTGA [3d1176],0.86
19,TATCATTGTGTAGACACTTTGGATGGGTTGA [3d1174],0.856
20,TATCATTGTTAAGACACTTTGGATGGGTTGA [3d1172],0.798
21,TATCATTTCGAAGACACTTTGGATGGGTTGA [3d1142],0.812
22,TATCATTTCGTAAACACTTTGGATGGGTTGA [3d1144],0.806
